Measured values: the supplement of paper PMC11316812
± gives the standard deviation of the averaged measurements.

Legend:
hTERT-HMEC = test: percentage of EdU-negative (G0-arrested) nuclei per well, 72 h; higher = more G0 arrest; details: reference: sequence is the full UniProt precursor, the tested protein was the secreted form or ectodomain
MCF7 = test: as above; details: reference: sequence is the full UniProt precursor, the tested protein was the secreted form or ectodomain
[1] = protein concentration 0.03125 µM
[2] = protein concentration 0.3125 µM
[3] = protein concentration 0.0225 µM
[4] = protein concentration 0.0285714 µM
[5] = protein concentration 0.285714 µM
[6] = protein concentration 0.00725 µM
[7] = protein concentration 0.0725 µM
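Further: secreted proteins added to cultured cells, EdU pulse at the end, nuclei found by Hoechst imaging, EdU status from nuclear versus surrounding ring intensity ratio, PBS as neutral control.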

Substance	percentage of EdU-negative (hTERT-HMEC; [3])	percentage of EdU-negative (hTERT-HMEC; protein concentration 0.225 µM)	percentage of EdU-negative (MCF7; [3])	percentage of EdU-negative (MCF7; protein concentration 0.225 µM)	further results
MAGPATQSPMKLMALQLLLWHSALWTVQEATPLGPASSLPQSFLLKCLEQVRKIQGDGAALQEKLVSECATYKLCHPEELVLLGHSLGIPWAPLSSCPSQALQLAGCLSQLHSGLFLYQGLLQALEGISPELGPTLDTLQLDVADFATTIWQQMEELGMAPALQPTQGAMPAFASAFQRRAGGVLVASHLQSFLEVSYRVLRHLAQP	–	–	–	–	percentage of EdU-negative (hTERT-HMEC; [1]): 5.19 ± 0.94%; percentage of EdU-negative (hTERT-HMEC; [2]): 9.86 ± 1.2%; percentage of EdU-negative (MCF7; [1]): 25 ± 0.82%; percentage of EdU-negative (MCF7; [2]): 27.5 ± 0.74%
MFHQIWAALLYFYGIILNSIYQCPEHSQLTTLGVDGKEFPEVHLGQWYFIAGAAPTKEELATFDPVDNIVFNMAAGSAPMQLHLRATIRMKDGLCVPRKWIYHLTEGSTDLRTEGRPDMKTELFSSSCPGGIMLNETGQGYQRFLLYNRSPHPPEKCVEEFKSLTSCLDSKAFLLTPRNQEACELSNN	4.08 ± 0.27%	9.42 ± 0.84%	23.57 ± 0.056%	30.2 ± 0.5%	–
MEGGDQSEEEPRERSQAGGMGTLWSQESTPEERLPVEGSRPWAVARRVLTAILILGLLLCFSVLLFYNFQNCGPRPCETSVCLDLRDHYLASGNTSVAPCTDFFSFACGRAKETNNSFQELATKNKNRLRRILEVQNSWHPGSGEEKAFQFYNSCMDTLAIEAAGTGPLRQVIEELGGWRISGKWTSLNFNRTLRLLMSQYGHFPFFRAYLGPHPASPHTPVIQIDQPEFDVPLKQDQEQKIYAQIFREYLTYLNQLGTLLGGDPSKVQEHSSLSISITSRLFQFLRPLEQRRAQGKLFQMVTIDQLKEMAPAIDWLSCLQATFTPMSLSPSQSLVVHDVEYLKNMSQLVEEMLLKQRDFLQSHMILGLVVTLSPALDSQFQEARRKLSQKLRELTEQPPMPARPRWMKCVEETGTFFEPTLAALFVREAFGPSTRSAAMKLFTAIRDALITRLRNLPWMNEETQNMAQDKVAQLQVEMGASEWALKPELARQEYNDIQLGSSFLQSVLSCVRSLRARIVQSFLQPHPQHRWKVSPWDVNAYYSVSDHVVVFPAGLLQPPFFHPGYPRAVNFGAAGSIMAHELLHIFYQLLLPGGCLACDNHALQEAHLCLKRHYAAFPLPSRTSFNDSLTFLENAADVGGLAIALQAYSKRLLRHHGETVLPSLDLSPQQIFFRSYAQVMCRKPSPQDSHDTHSPPHLRVHGPLSSTPAFARYFRCARGALLNPSSRCQLW	4.88 ± 0.16%	6.43 ± 0.18%	26.89 ± 0.16%	27.1 ± 3.5%	–
MAGPWTFTLLCGLLAATLIQATLSPTAVLILGPKVIKEKLTQELKDHNATSILQQLPLLSAMREKPAGGIPVLGSLVNTVLKHIIWLKVITANILQLQVKPSANDQELLVKIPLDMVAGFNTPLVKTIVEFHMTTEAQATIRMDTSASGPTRLVLSDCATSHGSLRIQLLHKLSFLVNALAKQVMNLLVPSLPNLVKNQLCPVIEASFNGMYADLLQLVKVPISLSIDRLEFDLLYPAIKGDTIQLYLGAKLLDSQGKVTKWFNNSAASLTMPTLDNIPFSLIVSQDVVKAAVAAVLSPEEFMVLLDSVLPESAHRLKSSIGLINEKAADKLGSTQIVKILTQDTPEFFIDQGHAKVAQLIVLEVFPSSEALRPLFTLGIEASSEAQFYTKGDQLILNLNNISSDRIQLMNSGIGWFQPDVLKNIITEIIHSILLPNQNGKLRSGVPVSLVKALGFEAAESSLTKDALVLTPASLWKPSSPVSQ [Q8TDL5]	5.17 ± 0.22%	8.84 ± 0.099%	25.5 ± 0.91%	30.5 ± 0.65%	–
MGPLSAPPCTQRITWKGVLLTASLLNFWNPPTTAQVTIEAQPPKVSEGKDVLLLVHNLPQNLAGYIWYKGQMTYLYHYITSYVVDGQRIIYGPAYSGRERVYSNASLLIQNVTQEDAGSYTLHIIKRRDGTGGVTGHFTFTLHLETPKPSISSSNLNPREAMEAVILTCDPATPAASYQWWMNGQSLPMTHRLQLSKTNRTLFIFGVTKYIAGPYECEIRNPVSASRSDPVTLNLLPKLSKPYITINNLNPRENKDVLTFTCEPKSKNYTYIWWLNGQSLPVSPRVKRPIENRILILPNVTRNETGPYQCEIRDRYGGIRSDPVTLNVLYGPDLPSIYPSFTYYRSGENLYLSCFAESNPRAQYSWTINGKFQLSGQKLSIPQITTKHSGLYACSVRNSATGKESSKSITVKVSDWILP	–	–	–	–	percentage of EdU-negative (hTERT-HMEC; [4]): 4.04 ± 0.52%; percentage of EdU-negative (hTERT-HMEC; [5]): 11.7 ± 1.3%; percentage of EdU-negative (MCF7; [4]): 25.3 ± 1.1%; percentage of EdU-negative (MCF7; [5]): 30.6 ± 3.2%
Q9ULL4	–	–	–	–	percentage of EdU-negative (hTERT-HMEC; [6]): 5.08 ± 0.93%; percentage of EdU-negative (hTERT-HMEC; [7]): 5.74 ± 0.25%; percentage of EdU-negative (MCF7; [6]): 23.6 ± 1.5%; percentage of EdU-negative (MCF7; [7]): 27.8 ± 0.59%
MVGKLKQNLLLACLVISSVTVFYLGQHAMECHHRIEERSQPVKLESTRTTVRTGLDLKANKTFAYHKDMPLIFIGGVPRSGTTLMRAMLDAHPDIRCGEETRVIPRILALKQMWSRSSKEKIRLDEAGVTDEVLDSAMQAFLLEIIVKHGEPAPYLCNKDPFALKSLTYLSRLFPNAKFLLMVRDGRASVHSMISRKVTIAGFDLNSYRDCLTKWNRAIETMYNQCMEVGYKKCMLVHYEQLVLHPERWMRTLLKFLQIPWNHSVLHHEEMIGKAGGVSLSKVERSTDQVIKPVNVGALSKWVGKIPPDVLQDMAVIAPMLAKLGYDPYANPPNYGKPDPKIIENTRRVYKGEFQLPDFLKEKPQTEQVE	4.95 ± 1.4%	7.95 ± 0.61%	26.5 ± 0.46%	25.4 ± 1.6%	–
MMQKLLKCSRLVLALALILVLESSVQGYPTRRARYQWVRCNPDSNSANCLEEKGPMFELLPGESNKIPRLRTDLFPKTRIQDLNRIFPLSEDYSGSGFGSGSGSGSGSGSGFLTEMEQDYQLVDESDAFHDNLRSLDRNLPSDSQDLGQHGLEEDFML	5.29 ± 0.12%	5.72 ± 0.97%	24.3 ± 3.3%	26 ± 1.7%	–
